From patent CN117460833A (dated 2024) come the findings set out here.

Where a chain is given by its changes, count along the chain named.

This test has as its target 重组小鼠ROR1 IgG2-Fc融合蛋白 (R&D系统公司, 目录号9910-RO-050) (mouse, UniProt Q9Z139 30-403). The test is described as follows: ELISA, coated mouse ROR1 IgG2-Fc, antibody dilutions, anti-human IgG Fc-HRP. In general terms: An ELISA detects its analyte on a solid surface through an enzyme-linked reagent.

重组小鼠ROR1 IgG2-Fc融合蛋白 (R&D系统公司, 目录号9910-RO-050), sequence (Q9Z139 30-403 limits assumed): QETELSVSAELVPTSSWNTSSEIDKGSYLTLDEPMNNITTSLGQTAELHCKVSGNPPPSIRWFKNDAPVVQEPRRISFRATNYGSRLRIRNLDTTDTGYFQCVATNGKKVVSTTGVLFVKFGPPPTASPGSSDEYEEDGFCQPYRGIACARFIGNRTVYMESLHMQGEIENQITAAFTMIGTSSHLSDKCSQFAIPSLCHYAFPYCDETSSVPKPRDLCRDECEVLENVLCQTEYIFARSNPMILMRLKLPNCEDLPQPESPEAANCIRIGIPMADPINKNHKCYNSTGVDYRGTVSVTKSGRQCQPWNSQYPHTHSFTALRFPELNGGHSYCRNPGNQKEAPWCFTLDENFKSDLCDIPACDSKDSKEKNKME

B1: s10 (RO6D8-s10) 抗ROR1单克隆抗体 (antibody, V domains shown)
VH: QVQLVQSGAEVKKPGASVKVSCKASGYTFTNYYMHWVRQAPGQGLEWMGIINPSGGSTSYAQKFQGRVTMTRDTSTSTVYMELSSLRSEDTAVYYCARSSRSSYYLWVLDLWGQGTTVTVSS
VL: AIQMTQSPSSLSASVGDRVTITCRASQGVSTEIAWYQQKPGKAPKLLIYAASSLQSGVPSRFSGSGSGTDFTLTISSLQPEDFATYYCQQFNSYPITFGQGTRLEIK
On to B1, for which the binding result was “binds”.

B2: jlv1011 (RO6D8-jlv1011) 抗ROR1单克隆抗体 (antibody, V domains shown)
VH: QVQLVQSGAEVKKPGASVKVSCKASGYTFTSKYYHWVRQAPGQGLEWMGIINPTSGSTSYAQKFQGRVTMTRDTSTSTVYMELSSLRSEDTAVYYCARDSSRYSGWYFDLWGQGTTVTVSS
VL: B1 VL with M4L, F91Y, N92Y, S93G, T97A
As to B2, the binding result is “binds”.
